T1: recombinant human CD39 (soluble) (human, UniProt P49961 38-478, limits assumed)
T1 sequence (looked up): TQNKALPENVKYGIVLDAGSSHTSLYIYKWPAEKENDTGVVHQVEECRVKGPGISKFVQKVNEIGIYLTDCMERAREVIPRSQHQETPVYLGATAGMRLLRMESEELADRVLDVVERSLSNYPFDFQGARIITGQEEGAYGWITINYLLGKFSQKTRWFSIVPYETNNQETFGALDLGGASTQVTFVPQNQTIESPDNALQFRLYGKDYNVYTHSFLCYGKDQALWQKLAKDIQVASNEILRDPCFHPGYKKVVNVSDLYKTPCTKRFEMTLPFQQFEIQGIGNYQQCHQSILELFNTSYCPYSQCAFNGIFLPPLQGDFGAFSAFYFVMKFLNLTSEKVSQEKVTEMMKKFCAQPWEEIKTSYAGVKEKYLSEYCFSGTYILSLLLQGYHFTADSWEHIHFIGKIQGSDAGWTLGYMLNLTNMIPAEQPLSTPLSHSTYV

T2: human CD39 expressed on the cell surface (human, UniProt P49961 1-510)
T2 sequence: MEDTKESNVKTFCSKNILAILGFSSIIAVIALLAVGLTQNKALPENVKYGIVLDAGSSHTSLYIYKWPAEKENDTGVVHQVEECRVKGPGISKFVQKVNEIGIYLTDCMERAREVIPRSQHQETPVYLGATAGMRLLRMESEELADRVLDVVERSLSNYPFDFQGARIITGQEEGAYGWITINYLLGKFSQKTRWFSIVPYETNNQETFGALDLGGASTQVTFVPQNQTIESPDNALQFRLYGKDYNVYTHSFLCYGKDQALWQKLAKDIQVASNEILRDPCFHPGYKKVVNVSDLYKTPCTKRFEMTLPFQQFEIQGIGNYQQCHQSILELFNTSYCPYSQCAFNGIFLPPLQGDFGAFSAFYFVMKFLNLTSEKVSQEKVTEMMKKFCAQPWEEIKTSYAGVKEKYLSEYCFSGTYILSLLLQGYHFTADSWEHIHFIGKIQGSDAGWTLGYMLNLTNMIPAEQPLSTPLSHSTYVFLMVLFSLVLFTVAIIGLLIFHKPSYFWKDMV

T3: soluble His-tagged human CD39 ECD protein (human, UniProt P49961 38-478)
T3 construct: also called human CD39 ECD His-tagged antigen; Sino Biological Cat. No. 16020-H08B
T3 sequence: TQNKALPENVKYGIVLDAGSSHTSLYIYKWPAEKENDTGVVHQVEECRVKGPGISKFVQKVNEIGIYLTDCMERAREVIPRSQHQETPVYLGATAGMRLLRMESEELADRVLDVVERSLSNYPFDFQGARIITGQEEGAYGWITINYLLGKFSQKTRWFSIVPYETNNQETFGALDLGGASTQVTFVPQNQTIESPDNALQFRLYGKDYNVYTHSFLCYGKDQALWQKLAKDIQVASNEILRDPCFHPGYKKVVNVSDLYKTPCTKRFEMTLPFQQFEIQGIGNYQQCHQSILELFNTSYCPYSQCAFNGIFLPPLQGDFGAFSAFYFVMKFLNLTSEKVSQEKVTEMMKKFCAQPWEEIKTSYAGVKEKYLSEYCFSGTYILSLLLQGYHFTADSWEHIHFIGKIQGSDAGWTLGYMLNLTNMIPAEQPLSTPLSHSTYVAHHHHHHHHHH


How the values were obtained:
[1] = biological target: T1, recombinant human CD39 (soluble); test: cell-based or functional assay
[2] = biological target: T2, human CD39 expressed on the cell surface; test: cell-based or functional assay
[3] = biological target: T2, human CD39 expressed on the cell surface; test: cell-based or functional assay; remark: listed apart in the source
[4] = biological target: T2, human CD39 expressed on the cell surface; test: cell-based or functional assay; remark: listed apart in the source
[5] = biological target: T3, soluble His-tagged human CD39 ECD …; test: SPR, monovalent affinity mode; average over seven surface densities
[6] = biological target: T2, human CD39 expressed on the cell surface; test: flow cytometry on human PBMCs gated on CD19+ B cells, 0 uM ATP (N = 8)
[7] = biological target: T2, human CD39 expressed on the cell surface; test: flow cytometry on human PBMCs gated on CD14+ monocytes, 0 uM ATP (N = 8)
[8] = biological target: T2, human CD39 expressed on the cell surface; test: flow cytometry on human PBMCs gated on CD19+ B cells, 400 uM ATP (N = 6)
[9] = biological target: T2, human CD39 expressed on the cell surface; test: flow cytometry on human PBMCs gated on CD14+ monocytes, 400 uM ATP (N = 6)
[10] = biological target: T2, human CD39 expressed on the cell surface; test: flow cytometry on human PBMCs gated on CD19+ B cells, one donor, 0 µM ATP
[11] = biological target: T2, human CD39 expressed on the cell surface; test: flow cytometry on human PBMCs gated on CD19+ B cells, one donor, 400 µM ATP
[12] = biological target: T3, soluble His-tagged human CD39 ECD …; test: SPR, bivalent avidity mode (CD39 ECD immobilized, antibody analyte); Rmax 420.45 RU surface
[13] = biological target: T3, soluble His-tagged human CD39 ECD …; test: SPR, bivalent avidity mode (CD39 ECD immobilized, antibody analyte); Rmax 524.16 RU surface
[14] = biological target: T3, soluble His-tagged human CD39 ECD …; test: SPR, bivalent avidity mode; average over six surface densities; average of different density surfaces; CD39 ECD immobilized
[15] = biological target: T2, human CD39 expressed on the cell surface; test: flow cytometry on whole blood of C57BL/6 hCD39KI MC38 mice treated in vivo with isotype control, with saline or oxaliplatin; signal over the IgG1.FcS-AF647 isotype control (bottom row of panels)
[16] = biological target: T3, soluble His-tagged human CD39 ECD …; test: SPR, bivalent avidity mode; average over six surface densities
[17] = biological target: T2, human CD39 expressed on the cell surface; test: competition flow cytometry on MOLP-8 cells, competitor hu39.1_IGG4.P-AF647
[18] = biological target: T3, soluble His-tagged human CD39 ECD …; test: SPR, bivalent avidity mode (CD39 ECD immobilized, antibody analyte); Rmax 896.01 RU surface

IC50, inhibition of recombinant CD39 enzymatic activity, 20 uM ATP [1] [nM] | Max Inhibition (%), recombinant CD39, 20 uM ATP [1] [%] | IC50, CD39 enzymatic inhibition on THP-1 cells, 20 uM ATP [2] [nM] | Max Inhibition (%), THP-1 cells [2] [%] | IC50, CD39 enzymatic inhibition on human monocytes, 20 uM ATP [3] [nM] | Max Inhibition (%), human monocytes, 20 uM ATP [3] [%] | IC50, CD39 enzymatic inhibition on human monocytes, 400 uM ATP [4] [nM] | Max Inhibition (%), human monocytes, 400 uM ATP [4] [%] | Kd [5] [nM] | EC50 [6] [nM] | EC50 [7] [nM] | EC50 [8] [nM] | EC50 [9] [nM] | EC50 (read off the curve) [10] [nM] | EC50 (read off the curve) [11] [nM] | Binder | other results
0.19 | 80 | 0.075 | 55 | 0.1 | 69 | 0.083 | 62 | 0.24 | 0.2 | 0.3 | 0.3 | 0.5 | ~0.2 | ~0.2 | hu39.5_IGG1.AA (antibody, human IgG1, kappa, L234A L235A, humanized variant of antibody 39, human IgG1 L234A/L235A) heavy: not shown light: DTVLTQSPASLAVSPGQRATITCRASEGVKSYMHWYQQKPGQPPKLLIYKASNLASGVPARFSGSGSGTDFTLTINPVEADDTANYYCQQSWNDPTFGQGTKLEIKRTVAAPSVFIFPPSDEQLKSGTASVVCLLNNFYPREAKVQWKVDNALQSGNSQESVTEQDSKDSTYSLSSTLTLSKADYEKHKVYACEVTHQGLSSPVTKSFNRGEC | Kd [12]: 0.00998 nM; Kd [13]: 0.00656 nM; Kd [14]: 0.01 nM
– | – | – | – | – | – | – | – | – | – | – | – | – | – | – | hu39.5_IGG1.AA-AF647 (antibody, human IgG1, kappa, L234A L235A, antibody conjugated to AF647 (Lightning Link kit; residues not stated)) heavy: not shown light: DTVLTQSPASLAVSPGQRATITCRASEGVKSYMHWYQQKPGQPPKLLIYKASNLASGVPARFSGSGSGTDFTLTINPVEADDTANYYCQQSWNDPTFGQGTKLEIKRTVAAPSVFIFPPSDEQLKSGTASVVCLLNNFYPREAKVQWKVDNALQSGNSQESVTEQDSKDSTYSLSSTLTLSKADYEKHKVYACEVTHQGLSSPVTKSFNRGEC | binding result [15]: binds
– | – | – | – | 2.7 | 74 | 1.4 | 62 | – | 0.9 | 1 | 0.8 | 1 | ~0.7 | ~0.8 | huBMK2_IGG1.AEASS (antibody, human IgG1, kappa, V domains shown, also called previously described anti-CD39 antibody (comparator)) VH: QVQLVQSGAEVKKPGASVKVSCKASGYTFTDYNMHWVRQAPGQRLEWIGYIVPLNGGSTFNQKFKGRATITVDTSARTAYMELSSLRSEDTAVYYCARGGTRFAYWGQGTLVTVSS VL: DIVMTQSPDSLAVSLGERATINCRASESVDNFGVSFMYWFQQKPGQPPKLLIYGASNQGSGVPDRFSGSGSGTDFTLTISSLQAEDVAVYYCQQTKEVPYTFGGGTKVEIKR | –
0.3 | 86 | 0.53 | 62 | 1 | 69 | 0.7 | 63 | 0.19 | 1 | – | 1 | – | ~2 | ~2 | hu31.4_IGG1.AA (antibody, human IgG1, kappa, L234A L235A, humanized variant of antibody 31, human IgG1 L234A/L235A) heavy: not shown light: DIVLTQSPALAVSPGQRATITCRTQQTVDHYGTTYMNWYQQKPGQPPKLLIYLASSLASGVPARFSGSGSGTDFTLTINPVEADDTANYYCQQSRNLWTFGGGTKVEIKRTVAAPSVFIFPPSDEQLKSGTASVVCLLNNFYPREAKVQWKVDNALQSGNSQESVTEQDSKDSTYSLSSTLTLSKADYEKHKVYACEVTHQGLSSPVTKSFNRGEC | Kd [16]: 0.3 nM; Max Competition [17]: -22%; Kd [18]: 0.105 nM
